Measurements published in US9587002B2, “Sequence of nucleotides and peptides GSE 24.2 of dyskerin, which can induce telomerase activity, method for obtaining same, therapeutic compositions and applications thereof” (CONSEJO SUPERIOR DE INVESTIGACIONES CIENTIFICAS, priority 2005, dated 2017).
Entries after “also recorded” stand apart in the source; their conditions may differ.

Key:
hTERT promoter = test: hTERT-luc reporter (luciferase) assay in 293T cells; format: cell-based, human
Experimental: FIG. 8.—Activity of the hTERT promoter in the 293T cell lines: pLNCX and 24.2 and in 293T cells transiently transfected with the pLNCX-24.2 construct and the pLNCX empty plasmid. A) Both the pLNCX and the 24.2 cells were transiently transfected with 0.25 μg of the hTERT-luc reporter vector. The cells were seeded in 60-mm plates. After 24 hours of transfection, the cells were lysed and the luciferase activity of 10 μg of total protein was quantified. As a transfection control, the cells were co-transfected with a reporter vector, CMV-Renilla. B) The 293T cells were transfected with the pLNCX vector and the 24.2 plasmid (5 μg), and both were co-transfected with 0.25 μg of the hTERT-luc reporter vector. After seeding the cells as in A, they were transfected with pLNCX and 24.2, and co-transfected with the hTERT-luc reporter vector; subsequently, they were treated as in A. As a transfection control, the CMV-Renilla reporter vector was used. The data correspond to the ratio of relative units of luciferase with respect to non-transfected cells. Each point represents the mean±the standard deviation obtained from 3 independent experiments. C) The 293T cells were transfected with the different GSE 24.4, DSK, TRUB I, TRUB II constructs and the pLNCX empty plasmid (5 μg), and co-transfected with 0.25 μg of the hTERT-luc reporter vector. The cells were seeded in 60-mm plates; after 24 hours of transfection, the cells were lysed and the luciferase activity of 10 μg of total protein was quantified. As a transfection control, the cells were co-transfected with a CMV-Renilla reporter vector. The data correspond to the ratio of relative units of luciferase with respect to non-transfected cells. Each point represents the mean±the standard deviation obtained from 3 independent experiments.
FIG. 9.—Activity of the hTERT promoter following treatment with cisplatin. A) Both the pLNCX cell line and the 24.2 cell line were transiently transfected with 0.25 μg of the hTERTIuc reporter vector. After 24 hours of transfection, they were treated with 3 μg/ml of cisplatin for 8 hours. The cells were seeded in 60-mm plates; after 24 hours of transfection and following treatment with cDDP, the cells were lysed and the luciferase activity of 10 μg of total protein was quantified. As a transfection control, the cells were co-transfected with a CMV-Renilla reporter vector. B) 293T cells which, after being transiently transfected with pLNCX and 24.2, were co-transfected with 0.25 μg of the hTERT-luc reporter vector and treated as in A. After seeding the cells as in A, they were transfected with pLNCX and 24.2, and co-transfected with the hTERT-luc reporter vector; subsequently, they were treated as in A. As a transfection control, the CMV-Renilla reporter vector was used. The data correspond to the ratio of relative units of luciferase with respect to non-transfected cells. Each point represents the mean±the standard deviation obtained from 3 independent experiments.
A) The 293T cells were co-transfected with different constructs (10 μg/DNA per million cells) and the hTERT-luc reporter (1 μg per million cells). The specified cell lines were co-transfected with the hTERT-luc reporter and different quantities of the Mad/myc expression vector. (B) The specified cell lines were co-transfected with the HIV-luc reporter and with different quantities of the Mad/myc expression vector. After 24 h of transfection, the cells were stimulated with 50 ng/ml of TNF-α for 6 hours and the luciferase activity was analysed as described above. CMV-Renilla (0.1 μg/ml per million cells) was used as a control for the transfection efficiency. The data represent the mean of two experiments performed in quadruplicate.
The pseudouridine synthase TRUB domain of dyskerin comprises two structural subdomains: the Trub I and II motifs (Zucchini et al., 2003). These two domains are critical to maintain the global protein structure of dyskerin. […]

telomerase = telomerase (Homo sapiens, UniProt O14746); test: Telomerase activity (TRAP) of 293T cell lines treated with cisplatin; format: cell-based; parameters: endogenous in cells; host or cells: 293T cells stably transfected with empty pLNCX or pLNCX 24.2; details: pre-treated 0.5 μg/ml 3 days, then 3 μg/ml cisplatin for 7 days
telomerase, sequence (O14746 whole entry): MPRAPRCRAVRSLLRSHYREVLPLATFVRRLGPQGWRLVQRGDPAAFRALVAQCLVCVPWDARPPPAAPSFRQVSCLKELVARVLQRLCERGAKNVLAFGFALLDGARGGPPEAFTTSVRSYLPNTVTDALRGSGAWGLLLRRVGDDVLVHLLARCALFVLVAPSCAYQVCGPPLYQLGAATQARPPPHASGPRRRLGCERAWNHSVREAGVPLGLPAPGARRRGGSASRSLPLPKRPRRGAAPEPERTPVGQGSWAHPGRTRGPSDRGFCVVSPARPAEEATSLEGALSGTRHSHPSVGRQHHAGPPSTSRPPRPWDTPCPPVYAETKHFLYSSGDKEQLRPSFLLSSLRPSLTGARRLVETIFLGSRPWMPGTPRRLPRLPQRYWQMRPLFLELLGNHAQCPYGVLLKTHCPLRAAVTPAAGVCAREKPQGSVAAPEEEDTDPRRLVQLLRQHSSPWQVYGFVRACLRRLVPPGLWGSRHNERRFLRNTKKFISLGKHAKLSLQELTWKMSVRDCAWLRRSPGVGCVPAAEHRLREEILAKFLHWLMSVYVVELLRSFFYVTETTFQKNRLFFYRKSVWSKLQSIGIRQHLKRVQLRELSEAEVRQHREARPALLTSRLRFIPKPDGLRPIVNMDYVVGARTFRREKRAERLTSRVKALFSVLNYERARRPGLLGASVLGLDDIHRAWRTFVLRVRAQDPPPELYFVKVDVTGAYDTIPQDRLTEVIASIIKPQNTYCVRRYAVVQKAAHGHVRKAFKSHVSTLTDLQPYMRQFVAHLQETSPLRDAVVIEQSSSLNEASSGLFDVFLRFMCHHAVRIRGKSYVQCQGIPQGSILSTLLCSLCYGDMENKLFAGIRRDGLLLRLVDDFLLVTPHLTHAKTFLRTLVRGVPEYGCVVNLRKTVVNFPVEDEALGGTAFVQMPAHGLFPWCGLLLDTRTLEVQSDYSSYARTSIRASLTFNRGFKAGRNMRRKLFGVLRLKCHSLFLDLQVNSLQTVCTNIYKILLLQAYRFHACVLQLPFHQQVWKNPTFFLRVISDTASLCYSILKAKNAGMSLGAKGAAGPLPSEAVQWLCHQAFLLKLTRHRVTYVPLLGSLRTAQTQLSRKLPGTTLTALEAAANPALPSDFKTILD
telomerase, sequence (O60832 2-514 partner limits assumed): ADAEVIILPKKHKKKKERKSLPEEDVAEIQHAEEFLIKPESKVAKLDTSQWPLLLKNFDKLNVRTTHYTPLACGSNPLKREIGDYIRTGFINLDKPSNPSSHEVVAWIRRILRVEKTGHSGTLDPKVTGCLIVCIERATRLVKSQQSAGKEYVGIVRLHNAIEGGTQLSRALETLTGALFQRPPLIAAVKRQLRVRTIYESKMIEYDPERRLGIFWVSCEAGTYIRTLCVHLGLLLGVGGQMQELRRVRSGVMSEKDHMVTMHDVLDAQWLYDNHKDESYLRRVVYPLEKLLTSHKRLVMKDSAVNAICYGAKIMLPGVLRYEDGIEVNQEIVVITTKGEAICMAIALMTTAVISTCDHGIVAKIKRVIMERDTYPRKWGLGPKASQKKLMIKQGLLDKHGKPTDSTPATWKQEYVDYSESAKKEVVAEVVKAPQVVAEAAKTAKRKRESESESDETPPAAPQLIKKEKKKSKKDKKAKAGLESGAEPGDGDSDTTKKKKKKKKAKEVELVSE
telomerase, sequence (Q9NPE3 whole entry partner): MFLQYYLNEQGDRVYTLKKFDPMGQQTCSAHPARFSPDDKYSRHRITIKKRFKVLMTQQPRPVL
telomerase, sequence (Q9NX24 whole entry partner): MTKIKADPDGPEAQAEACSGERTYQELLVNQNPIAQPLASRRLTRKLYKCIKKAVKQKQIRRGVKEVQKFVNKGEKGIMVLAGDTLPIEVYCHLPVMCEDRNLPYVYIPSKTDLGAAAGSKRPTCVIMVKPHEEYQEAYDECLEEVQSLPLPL
telomerase, sequence (Q9NY12 whole entry partner): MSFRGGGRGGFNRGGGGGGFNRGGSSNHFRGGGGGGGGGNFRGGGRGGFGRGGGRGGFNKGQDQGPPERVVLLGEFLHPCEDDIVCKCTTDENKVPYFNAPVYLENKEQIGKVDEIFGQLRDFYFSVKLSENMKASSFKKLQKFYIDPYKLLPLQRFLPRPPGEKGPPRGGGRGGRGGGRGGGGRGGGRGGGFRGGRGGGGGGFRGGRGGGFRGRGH
telomerase, sequence (Q9BUR4 whole entry partner): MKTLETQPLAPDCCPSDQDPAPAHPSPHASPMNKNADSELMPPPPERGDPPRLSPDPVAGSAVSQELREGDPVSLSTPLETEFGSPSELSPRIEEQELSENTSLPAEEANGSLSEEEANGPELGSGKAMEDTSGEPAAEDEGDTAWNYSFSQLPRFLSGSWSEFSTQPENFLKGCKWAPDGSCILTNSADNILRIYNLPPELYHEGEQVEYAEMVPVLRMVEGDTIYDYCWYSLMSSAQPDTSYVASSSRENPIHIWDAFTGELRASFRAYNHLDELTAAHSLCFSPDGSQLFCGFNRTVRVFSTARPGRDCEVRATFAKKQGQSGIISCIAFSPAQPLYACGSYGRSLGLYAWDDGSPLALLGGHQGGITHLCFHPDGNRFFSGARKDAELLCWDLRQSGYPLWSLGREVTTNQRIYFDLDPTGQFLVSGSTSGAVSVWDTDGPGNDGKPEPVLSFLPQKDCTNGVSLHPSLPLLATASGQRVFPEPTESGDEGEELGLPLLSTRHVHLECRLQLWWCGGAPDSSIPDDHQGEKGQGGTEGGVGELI
Experimental: FIG. 5.—Telomerase activity of the 293T cell lines: pLNCX and 24.2 following treatment with cisplatin. The cells were seeded in 60-mm plates, pre-treated with 0.5 μg/ml of cisplatin for 3 days and subsequently treated with cisplatin at a dose of 3 μg/ml […]. The telomerase activity was measured by means of the Intergen TRAPeze assay. The experiment was performed 3 times, with similar results.
To this end, an assay of telomerase activity was performed using the TRAP method with the pLNCX and pLNCX 24.2 cell lines (FIG. 5), pre-treating them for 3 days with 0.5 μg/ml of cisplatin; subsequently, they were treated with 3 μg/ml of cisplatin for 3 and 7 days. […]
Telomerase activity assay based on the TRAP method Wright et al., 1995). The telomerase activity was measured using the TRAPeze telomerase detection kit (Intergen) in accordance with the instruction manual. The protein concentration of each extract was quantified by means of the Bradford method using the BIORAD reagent and after performing a PCR in accordance with the manual instructions; polyacrylamide gel electrophoresis was performed with the reaction products under non-denaturing conditions and, subsequently, it was stained with Ethidium bromide for 30 minutes.

B1: GSE 24.2: 165-pb cDNA fragment (nucleotides 268 to 433) of human dyskerin, SEQ ID NO1, encoding peptide SEQ ID NO2, expressed from pLNCX plasmid (nucleic acid, listed as Homo sapiens)
DNA: GGTTTCATTAATCTTGACAAGCCCTCTAACCCCTCTTCCCATGAGGTGGTAGCCTGGATTCGACGGATACTTCGGGTGGAGAAGACAGGGCACAGTGGTACTCTGGATCCCAAGGTGACTGGTTGTTTAATCGTGTGCATAGAACGAGCCACTCGCTTGGTGAAG
modifications: expressed from pLNCX plasmid; CDS (1)..(165) Sequence GSE 24.2
activity of the hTERT promoter, transient expression (hTERT promoter; 293T cells transiently transfected with construct vs empty vector, hTERT-luc, 24 hours): increases the activity of the hTERT promoter
hTERT promoter activity following cisplatin, transient expression (hTERT promoter; 293T transiently expressing GSE 24.2 vs pLNCX, 3 μg/ml cisplatin 8 hours): greater than the baseline activity
activity of the hTERT promoter, stable expression (hTERT promoter; pLNCX 24.2 cell line vs pLNCX, hTERT-luc, 24 hours): the activity of the hTERT promoter is greater; also recorded: increased the baseline activity of the telomerase promoter
induction of hTERT promoter activity following cisplatin, relative to pLNCX cells (hTERT promoter; stable pLNCX 24.2 cells, 3 μg/ml cisplatin for 8 hours): 4 times
inhibition of telomerase activity by cisplatin in 24.2 cell line (telomerase): no inhibition was observed
